The supplement of paper PMC12042874
± gives the uncertainty stated by the source.

Experiment: amyloid nucleation score (Sup35N fusion, yeast selection) (log enrichment); library NNK2; higher = more nucleation; inactive = no reads after selection
Procedure, shortened: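 The nucleation score, computed with DiMSum, is the log enrichment of output over input reads, centred on the mode score of non-aggregating sequences. Sequences with under 100 input reads were dropped. Reads were generated by Illumina sequencing of plasmid inserts from psi-negative yeast with Sup35N fused to peptides of 20 random codons, induced with 100 μM copper sulfate for 24 hours and grown 7 days at 30°C on medium lacking adenine and uracil.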

| Substance | amyloid nucleation score |
| --- | --- |
| TDLIPRQKKITLWFIS | 0.159 ± 0.53 |
| VSFKDTTGECGDLSYRKNAR | 0.646 ± 0.38 |
| FMTGSFEENS | -0.945 ± 1.1 |
| MVTYVMLSIPGFSSKYFFEG | -1.42 ± 1.1 |
| DGPIPLLSGMGHGGRYLWCV | 1.01 ± 0.18 |
| DDYRMVIVVT | -0.307 ± 0.33 |
| CAKCVMCSNCPKNSGRILYR | -1.12 ± 1.1 |
| MLVLFADRRSMRDLDNTGFV | 0.029 ± 0.79 |
| YGFPDF | -1.12 ± 1.1 |
| FAVNDCILCCRRSHWVLPYW | -0.334 ± 0.63 |
| VDSVTGVMTFSTRSRSSDGD | 0.844 ± 0.43 |
| CTHWLDPDFVL | -0.666 ± 0.79 |
| YFILKFVQTGGNS | 4.12 ± 0.041 |
| TLYDGWLVGPVERRFVIRAL | 1.08 ± 0.21 |
| WVFNNELCNDYEHWLWARFD | -0.295 ± 0.56 |
| IVVFSGVQVRGHCWNVKGAN | 7.64 ± 0.069 |
| FSRQISNGFIRGLFL | inactive |
| YSSFFHFRVCNLCRWGSVSN | 0.121 ± 0.18 |
| KLLFLLVVVLADQMSCLGTS | 1.1 ± 0.36 |
| ASGEDVNPSVCFHTTAMLYQ | 0.98 ± 0.66 |
| FGWVINVNVRPTRFVTEGPV | 6.54 ± 0.073 |
| VSNTEMQTVHVPAGLLPSGF | -0.27 ± 1.1 |
| KVAFLLRVGAYFDSWWHRRV | 0.166 ± 0.39 |
| FIFRMHAFNGIRLWCV | 1.38 ± 0.22 |
| VDWVMNCYTSGVVSLSFSLG | inactive |

| Substance | amyloid nucleation score |
| --- | --- |
| NWNVRRYVTPAFEFRGCV | 0.833 ± 0.74 |
| YCDVWGRRCCDANYMERTAS | 1.35 ± 0.38 |
| LFVRAFEPSGDHLCYQYVCL | -0.566 ± 0.38 |
| NVKICFCSVMSSTCRYNRT | 7.878 ± 0.064 |
| ARPIKFYKKLYFSCMIELLR | -1.38 ± 0.54 |
| DTMRYLAGYLMACWPVEWSG | 0.685 ± 0.22 |
| CESPLSYWWRSRSLFSLCVE | -0.359 ± 0.55 |
| KFRDVFFPY | -0.76 ± 0.55 |
| ARSRFSYKMRYPACGVISSR | -0.472 ± 0.79 |
| VSGCRGVMLI | -0.816 ± 0.54 |
| LWGLYNREFNAWRGHFVQDG | inactive |
| IIISYMFKHSWIKKGRHKLV | 0.597 ± 0.5 |
| TVGLIRLRLSILYFGPLDSV | 0.115 ± 0.56 |
| LDIYLLDMLWPLCAVLSNIG | -0.541 ± 0.38 |
| LQCLSRASGHCPGRSTFWHF | 1.02 ± 0.27 |
| ISVHSQNTYVILELVRPSML | 8.388 ± 0.04 |
| KKACSLFTRGFGRYRNTYEV | inactive |
| QQYPWYWIFIFNIYKYPSVS | 0.475 ± 0.42 |
| TCVQLKNAIFQVSWYILLQG | -0.322 ± 0.65 |
| VGINLSSATGMFEGKIQDNA | -0.757 ± 0.37 |
| VIRVLSMLFFSRVLVPVNSK | 0.151 ± 0.62 |
| CVHIKEVLAWLDRCGLGYVW | 0.662 ± 0.81 |
| LLPATWYLVLF | -0.204 ± 0.49 |
| NSVLVLAWWVNANCGLREGG | 5.454 ± 0.041 |
| KCIAGMSWCEH | 0.252 ± 0.2 |

| Substance | amyloid nucleation score |
| --- | --- |
| DHCMMLRFN | 0.716 ± 0.6 |
| MMIAWFSRMCFF | 2.92 ± 0.1 |
| SLMDLDFPLTSR | -0.334 ± 0.61 |
| AERLRVISGWAAWYAIDTRF | 3.82 ± 0.11 |
| RYFWRVSNIVWASAF | -0.498 ± 0.44 |
| DEWPWAVPSGVSRGCAGSVY | 0.231 ± 0.32 |
| RADVRMFLTRGLKVDFG | -0.322 ± 0.49 |
| YMADSPLELDSSMTDYLCPV | 4.18 ± 0.069 |
| FFEFRCWVMKGFWPLRMKDM | 0.414 ± 0.65 |
| DLDVN | -0.214 ± 0.56 |
| AHNDVNGVFLMPVRSLDFKH | -1.17 ± 0.64 |
| WLSTKWIFFISNVKFFLYLR | -0.06 ± 1 |
| SDNVLNDSSCLLYINFGAGQ | 2.69 ± 0.15 |
| STDYMGPAY | -0.617 ± 0.37 |
| SQVGTW | 0.795 ± 0.41 |
| NSNTKTSPIISW | inactive |
| VVNSVVPKRSRLCHFYFTGM | -1.02 ± 0.63 |
| LVALK | 1.08 ± 0.51 |
| WSWSLGNYYAHNVDCYSVGC | -0.266 ± 0.41 |
| FWRSMTYVRF | -0.526 ± 0.36 |
| VSEQSMQCGVKFRHGTPSMV | 0.607 ± 0.38 |
| GLGSRWRCA | 2.01 ± 0.24 |
| CVYRASIVRSRSNYEAVWYS | 0.341 ± 0.24 |
| LVGYLSSVELDYRWENC | -0.026 ± 0.32 |
| HVLNWTYSTRIDAGGKSIRM | -0.631 ± 0.76 |

| Substance | amyloid nucleation score |
| --- | --- |
| KYTGNFGAVSL | 0.22 ± 0.65 |
| FSFNIPQFINV | inactive |
| SLLRLIFMLRRGDIHGYCRG | 5.84 ± 0.084 |
| GLGLICLQMGGFCMWRFRRM | 0.197 ± 0.24 |
| SKRFIVIATLNTYMFQKLEF | inactive |
| LKSSNRGNVRKRLLGEDEGT | 0.245 ± 0.37 |
| MGLRCWKIIMWNYSRKLHQC | 0.031 ± 0.45 |
| FVGTAQEEIHGFMNCIVELR | inactive |
| DSWFRPVLNFPCSRNANKSL | 1.95 ± 0.25 |
| FLNKDGNIV | -0.022 ± 0.55 |
| NHSTVYLLMEISTGLVISGN | 1.99 ± 0.16 |
| ISGVLLWIRRFKHPICEEAW | 0.371 ± 0.56 |
| SYYELGNDLSACYFYCHRVA | -0.253 ± 0.79 |
| LWSGFLSFVSNVPTFLYLS | -2.01 ± 0.41 |
| EGFEFCWINNMDWSMPWVTN | 5.08 ± 0.062 |
| RCRVFYQNHIYLGFLKCNQS | 1.42 ± 0.16 |
| VFKFLSAISPFKGD | 0.551 ± 0.38 |
| GLRRVKFYIKVIFAKSSLVI | -1.84 ± 0.49 |
| YYMKFEAILKDQWSTVYN | inactive |
| NSVFFY | -1.63 ± 1.1 |
| YTVWEEYHRAKSSGLT | 1 ± 0.33 |
| FVVLFLFYFEVFAVYKVSLG | inactive |
| VMRLFIGAGIGRAEL | 5.63 ± 0.059 |
| RCRISVWVVGSCLSRMYG | 4.29 ± 0.056 |
| QWGDYIGAASMW | -0.767 ± 0.49 |

| Substance | amyloid nucleation score |
| --- | --- |
| CPEDVAEFMCRALFRSISIG | 0.45 ± 0.74 |
| LALSWRNDSYNLKNVLRLLG | -1.16 ± 0.28 |
| RPKLGSSVVRHVMFIGWGCG | 0.797 ± 0.43 |
| KNDISHS | inactive |
| KGKTLLYSAKHIVFNR | 0.482 ± 0.3 |
| SMNVYVDGFCWLAHVLNVVW | 6.928 ± 0.035 |
| TLMIYCFFSGFLKGVWMM | 0.053 ± 0.8 |
| NILMY | -0.46 ± 1 |
| VEWCRMVGWSFECEASEKHW | 4.33 ± 0.055 |
| MTTFDIRIMA | 0.195 ± 0.24 |
| PNMGLVNCRRNFCCRLWRIC | -0.469 ± 1.1 |
| GLGYSLICNLTSICGKNNV | -0.147 ± 1.1 |
| ALRTPCYSAMHLGAWVFVCF | 3.31 ± 0.14 |
| FFVLRHA | -0.513 ± 0.32 |
| SYECPMHTLPVHSRSAYRST | 0.878 ± 0.27 |
| FNFYKWYYIGLTAISFVYTV | -1.51 ± 1 |
| RSGLYM | -0.55 ± 0.64 |
| LADTGA | 0.108 ± 0.42 |
| ISFTVYGPRMVVWLQGIMFG | -0.86 ± 0.35 |
| LRSRVSSSLSYKLLFRTNVL | -0.175 ± 0.49 |
| TLVNCVSMWWALHSVANGNG | 3.3 ± 0.11 |
| KTPGSHVGLWSMPGRSYPSA | 0.401 ± 0.45 |
| FVCLVLRLCTMGSRASGLKK | 0.255 ± 1.1 |
| KGVCRNMAGGKYANMRYGGV | 5.09 ± 0.051 |
| WKTKISSSSCRSGNRSEPNA | 0.281 ± 0.29 |

| Substance | amyloid nucleation score |
| --- | --- |
| DETNGTGSRVRLVRRYER | 0.946 ± 0.27 |
| QGFYDGQPV | 0.203 ± 0.5 |
| YNIFPIISLITRNK | 6.42 ± 0.064 |
| RHVCYGGQYLVANHSGM | -0.267 ± 0.65 |
| MTMMVGRIISTNRVYS | 1.29 ± 0.53 |
| NDSRHTVIGYVMFKVYMYLK | inactive |
| NVFVCPAFQRTWVWMAVMSW | inactive |
| FMRGLMARLCER | 0.293 ± 0.4 |
| INHKQGCSTVWPVAKVCMLV | 0.201 ± 1 |
| SRWLSQSPDHSWGGQTYGMS | -0.023 ± 0.63 |
| YTNHSLNMHLWCRNS | inactive |
| VKPWFS | -0.145 ± 1.1 |
| IALFVGFLVDAKDEGIL | -0.419 ± 0.26 |
| RLEPYCILSRV | -1.75 ± 0.48 |
| CSYVDRTLGSNLWVVRSNSQ | 0.737 ± 0.51 |
| FLLPSYERDSSYVAYF | -0.687 ± 0.79 |
| MVRIGELSPRCNSFV | 0.075 ± 0.53 |
| NGFMDYQLPLAARVKSSWHL | 2.97 ± 0.076 |
| RLKTDRLAMIPVRPKRFPGP | 0.191 ± 0.63 |
| TMQIFMKSMINSGICSTYHL | 3.47 ± 0.08 |
| MALVSTSSFFDV | inactive |
| VGYLALQFLVRCMY | inactive |
| NDGCIGVFFDRMVPDWVTTL | -0.477 ± 0.48 |
| RRVDWDYLPLFMQAAPYSWK | -0.197 ± 0.22 |
| PVIQYVTSG | -0.257 ± 0.5 |

| Substance | amyloid nucleation score |
| --- | --- |
| SVFVNCNHWYIYSPWPSKRN | 8.715 ± 0.047 |
| REWVRYCRCWSCYYPTFFS | -0.198 ± 0.63 |
| FYWNEICFNSSKE | inactive |
| IFEVRLPQELSSYSHFGGGC | 0.706 ± 0.74 |
| WNMYNRIWFLGHKLLWGSPT | -0.414 ± 0.76 |
| SWPVRFQLNATGSPVGRLWT | -0.334 ± 0.76 |
| NLSDLLFLQSTSEGLSLFSI | -0.621 ± 0.64 |
| KWCPLFKGSIGFSFLVHTMK | -1.26 ± 1.1 |
| KSWHPRFQSDMKFHLFCLVV | -0.19 ± 0.56 |
| RPLCLLGRVATSKETSGRRC | 4.34 ± 0.049 |
| NCPSTDFPELMSMQSYCLLC | -1.71 ± 1.1 |
| GVKST | 0.422 ± 0.74 |
| SCFGRKLLLLDGA | 0.203 ± 0.28 |
| VSQGRFKYERVVCVNFGKEL | 0.201 ± 0.74 |
| HESKYNVQVFN | -0.276 ± 0.76 |
| FLVLVWSRCSNLFL | 2.86 ± 0.14 |
| RFRFYYCLDCSHL | inactive |
| IKFTLHCYDCVVFNC | 6.937 ± 0.056 |
| VHAPLLRRPNVLHTKLH | 0.112 ± 1.1 |
| MAVYTRVVTLCRGKPFS | 1.06 ± 0.35 |
